Assay [1] has as its target T1, Fragments of Hsc70 in frame with the GAL4 activation domain (five prey clones, human heart cDNA library in … (human, UniProt P11142 394-646, limits assumed)).
T1 construct: domain: carboxyl terminus
Description: yeast two-hybrid.

The target of assay [2] is T2, Fragments of Hsp70 in frame with the GAL4 activation domain (three prey clones, human heart cDNA library in … (human, UniProt P0DMV8 417-641, limits assumed)).
T2 construct: domain: carboxyl terminus; Three clones treated as one molecule
T2 sequence (P0DMV8 417-641 limits assumed): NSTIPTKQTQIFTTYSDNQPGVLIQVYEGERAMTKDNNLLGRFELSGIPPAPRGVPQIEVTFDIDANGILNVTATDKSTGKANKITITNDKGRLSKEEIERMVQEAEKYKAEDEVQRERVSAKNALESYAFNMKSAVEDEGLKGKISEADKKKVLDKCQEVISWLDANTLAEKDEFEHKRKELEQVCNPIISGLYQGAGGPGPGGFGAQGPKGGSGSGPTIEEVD
Description: yeast two-hybrid.

Assay [3] deals with T3, Human Hsp70 (Stressgen) (human, UniProt P0DMV8 1-641). Description: cell-based or functional assay.
T3 sequence (P0DMV8 whole entry): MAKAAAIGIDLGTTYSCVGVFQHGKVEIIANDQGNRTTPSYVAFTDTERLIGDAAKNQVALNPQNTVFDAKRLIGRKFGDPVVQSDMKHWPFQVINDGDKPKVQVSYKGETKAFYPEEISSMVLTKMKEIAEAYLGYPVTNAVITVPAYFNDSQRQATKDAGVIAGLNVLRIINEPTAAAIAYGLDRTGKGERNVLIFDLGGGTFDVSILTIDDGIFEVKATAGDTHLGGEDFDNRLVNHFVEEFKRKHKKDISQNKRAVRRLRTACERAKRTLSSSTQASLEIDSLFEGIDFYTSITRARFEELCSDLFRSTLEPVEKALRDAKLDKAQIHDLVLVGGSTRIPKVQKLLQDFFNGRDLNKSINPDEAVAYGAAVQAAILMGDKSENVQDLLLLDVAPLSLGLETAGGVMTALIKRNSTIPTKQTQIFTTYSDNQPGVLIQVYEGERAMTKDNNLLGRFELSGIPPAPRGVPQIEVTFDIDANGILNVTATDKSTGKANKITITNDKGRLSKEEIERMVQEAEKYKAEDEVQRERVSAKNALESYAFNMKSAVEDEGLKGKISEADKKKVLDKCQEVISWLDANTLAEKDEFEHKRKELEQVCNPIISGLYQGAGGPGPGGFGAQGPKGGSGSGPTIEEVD
The target in the next assay is T4, Human Hsp40 (Stressgen) (human, UniProt P25685 1-340).
T4 construct: also called co-chaperone Hsp40
T4 sequence (P25685 whole entry): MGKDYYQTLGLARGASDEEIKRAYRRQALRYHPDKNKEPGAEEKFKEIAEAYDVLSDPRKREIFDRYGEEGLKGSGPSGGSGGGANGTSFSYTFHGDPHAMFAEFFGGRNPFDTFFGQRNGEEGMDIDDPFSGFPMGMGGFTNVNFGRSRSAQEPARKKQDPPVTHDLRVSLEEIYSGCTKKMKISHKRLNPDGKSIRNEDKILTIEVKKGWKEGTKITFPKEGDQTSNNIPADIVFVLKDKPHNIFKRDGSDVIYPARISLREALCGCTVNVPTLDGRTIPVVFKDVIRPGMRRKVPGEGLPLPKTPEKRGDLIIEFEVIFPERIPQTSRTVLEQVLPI
Description: GST pulldown on glutathione-Sepharose beads, immunoblot.

Another assay concerns the target T5, Bovine Hsc70 (Stressgen) (bovine, UniProt P19120 2-650).
T5 construct: also called purified Hsc70
Description: GST-hCHIP fragments, in vitro binding assay, immunoblot.

Assay [4] deals with T6, GST-Hsc70 (amino acid residues 1-540) (UniProt P11142 1-540).
T6 construct: range 1-540; From E. Ungewickell; also called pGEXHsc70 (1-540); not shown: glutathione S-transferase (GST) of a pGEX vector
T6 sequence (P11142 1-540): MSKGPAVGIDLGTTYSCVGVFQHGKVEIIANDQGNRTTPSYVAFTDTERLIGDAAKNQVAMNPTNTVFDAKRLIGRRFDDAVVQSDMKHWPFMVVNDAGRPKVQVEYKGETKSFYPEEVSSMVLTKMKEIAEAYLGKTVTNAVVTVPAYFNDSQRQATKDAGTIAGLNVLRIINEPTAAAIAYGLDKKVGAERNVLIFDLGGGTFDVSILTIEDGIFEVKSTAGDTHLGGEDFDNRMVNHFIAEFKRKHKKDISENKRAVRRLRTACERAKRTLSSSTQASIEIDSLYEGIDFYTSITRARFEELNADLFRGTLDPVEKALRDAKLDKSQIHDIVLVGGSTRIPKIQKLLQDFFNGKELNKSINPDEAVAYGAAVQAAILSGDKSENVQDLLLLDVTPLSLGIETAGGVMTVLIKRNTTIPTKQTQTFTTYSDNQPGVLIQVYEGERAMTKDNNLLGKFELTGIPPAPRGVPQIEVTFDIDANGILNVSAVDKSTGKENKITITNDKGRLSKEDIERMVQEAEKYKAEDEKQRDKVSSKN
Description: GST-Hsc70 deletion mutants on beads with 35S-labeled hCHIP, autoradiography.

The target of assay [5] is SV40 large T antigen (negative control protein, Clontech) (SV40, UniProt P03070 84-708). Nature of the assay: yeast two-hybrid.
SV40 large T antigen (negative control protein, Clontech), sequence (P03070 84-708 limits assumed): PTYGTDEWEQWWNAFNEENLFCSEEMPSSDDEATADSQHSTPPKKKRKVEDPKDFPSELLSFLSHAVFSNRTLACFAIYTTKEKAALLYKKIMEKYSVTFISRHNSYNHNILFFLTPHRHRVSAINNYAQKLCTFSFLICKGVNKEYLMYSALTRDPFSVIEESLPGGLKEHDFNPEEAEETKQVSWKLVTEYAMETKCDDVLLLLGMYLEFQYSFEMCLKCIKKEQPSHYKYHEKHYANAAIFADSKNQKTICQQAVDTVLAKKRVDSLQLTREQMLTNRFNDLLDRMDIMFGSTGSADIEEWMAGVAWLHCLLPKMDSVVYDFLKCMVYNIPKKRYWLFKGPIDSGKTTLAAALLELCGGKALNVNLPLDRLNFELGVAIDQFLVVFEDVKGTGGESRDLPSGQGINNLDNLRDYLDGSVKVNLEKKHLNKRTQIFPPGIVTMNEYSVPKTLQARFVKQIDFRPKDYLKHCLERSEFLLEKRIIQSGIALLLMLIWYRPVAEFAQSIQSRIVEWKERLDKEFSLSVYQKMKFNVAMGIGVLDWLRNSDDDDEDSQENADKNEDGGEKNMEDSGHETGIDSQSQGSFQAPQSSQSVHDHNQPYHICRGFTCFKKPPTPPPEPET
The target in assay [6] is T3, Human Hsp70 (Stressgen). Description: GST-hCHIP fragments, in vitro binding assay, immunoblot.

T5 sequence (P19120 2-650 limits assumed): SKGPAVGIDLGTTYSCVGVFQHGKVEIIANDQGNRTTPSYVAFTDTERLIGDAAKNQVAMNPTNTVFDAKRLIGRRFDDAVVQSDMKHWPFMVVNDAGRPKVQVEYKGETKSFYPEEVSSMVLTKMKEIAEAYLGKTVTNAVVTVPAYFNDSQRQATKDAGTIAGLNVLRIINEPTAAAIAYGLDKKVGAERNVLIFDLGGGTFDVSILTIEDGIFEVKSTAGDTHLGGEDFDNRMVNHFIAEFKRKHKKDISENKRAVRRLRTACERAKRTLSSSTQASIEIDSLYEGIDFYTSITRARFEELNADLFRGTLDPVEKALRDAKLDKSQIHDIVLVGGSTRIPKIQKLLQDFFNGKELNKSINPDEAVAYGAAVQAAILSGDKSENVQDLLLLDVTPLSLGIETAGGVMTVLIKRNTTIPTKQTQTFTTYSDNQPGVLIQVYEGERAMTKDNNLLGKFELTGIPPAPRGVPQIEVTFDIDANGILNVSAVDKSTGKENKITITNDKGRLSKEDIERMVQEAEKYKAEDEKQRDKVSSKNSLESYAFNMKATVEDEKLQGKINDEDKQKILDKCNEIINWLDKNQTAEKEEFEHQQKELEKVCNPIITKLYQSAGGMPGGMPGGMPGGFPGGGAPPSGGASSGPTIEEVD
T1 sequence (P11142 394-646 limits assumed): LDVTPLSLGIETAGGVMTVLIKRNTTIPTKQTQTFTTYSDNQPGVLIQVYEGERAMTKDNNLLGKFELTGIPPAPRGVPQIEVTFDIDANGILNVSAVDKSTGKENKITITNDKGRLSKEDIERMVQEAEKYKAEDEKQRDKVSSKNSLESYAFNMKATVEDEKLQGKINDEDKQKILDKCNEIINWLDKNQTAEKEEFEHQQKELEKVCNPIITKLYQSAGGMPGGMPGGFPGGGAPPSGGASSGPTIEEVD

B1: lamin C (negative control, yeast two-hybrid) (other, UniProt P02545-2 66-230, looked up)
chain: SEEVVSREVSGIKAAYEAELGDARKTLDSVAKERARLQLELSKVREEFKELKARNTKKEGDLIAAQARLKDLEALLNSKEAALSTALSEKRTLEGELHDLRGQVAKLEAALGEAKKQLQDEMLRRVDAENRLQTMKEELDFQKNIYSEELRETKRRHETRLVEID
With B1, the binding result in assay [1] and in assay [2] was “no binding” throughout.

B2: Recombinant hCHIP (His-tagged fusion from plasmid pET-hCHIP, expressed in E. coli BL21) (other, not shown: small tags and cut ends)
chain: MKGKEEKEGGARLGAGGGSPEKSPSAQELKEQGNRLFVGRKYPEAAACYGRVITRNPLVAVYYTNRALCYLKMQQHEQALADCRRALELDGQSVKAHFFLGQCQLEMESYDEAIANLQRAYSLAKEQRLNFGDDIPSALRIAKKKRWNSIEERRIHQESELHSYLSRLIAAERERELEECQRNHEGDEDDSHVRAQQACIEAKHDKYMADMDELFSQVDEKRKKRDIPDYLCGKISFELMREPCITPSGITYDRKDIEEHLQRVGHFDPVTRSPLTQEQLIPNLAMKEVIDAFISENGWVEDY
For the molecule B2, in the assay with Human Hsp70 (Stressgen) [3], the “luciferase refolding: decrease of the folding activity of Hsp70” value was determined as 65% and the “luciferase refolding: decrease of the folding activity of Hsp70/Hsp40” value is 64%.

B3: GST-hCHIP fusion protein (amino acid residues 1-303) (other)
chain: MKGKEEKEGGARLGAGGGSPEKSPSAQELKEQGNRLFVGRKYPEAAACYGRVITRNPLVAVYYTNRALCYLKMQQHEQALADCRRALELDGQSVKAHFFLGQCQLEMESYDEAIANLQRAYSLAKEQRLNFGDDIPSALRIAKKKRWNSIEERRIHQESELHSYLSRLIAAERERELEECQRNHEGDEDDSHVRAQQACIEAKHDKYMADMDELFSQVDEKRKKRDIPDYLCGKISFELMREPCITPSGITYDRKDIEEHLQRVGHFDPVTRSPLTQEQLIPNLAMKEVIDAFISENGWVEDY
notes: also called GST-CHIP; not shown: glutathione S-transferase (GST) encoded by vector pGEX KG
With B3, the binding result was “no binding” with Human Hsp40 (Stressgen) and “binds” with Bovine Hsc70 (Stressgen).

B4: 35S-labeled, in vitro translated hCHIP (43-kD S-tagged fusion from vector pCITE-4a) (other)
chain: MKGKEEKEGGARLGAGGGSPEKSPSAQELKEQGNRLFVGRKYPEAAACYGRVITRNPLVAVYYTNRALCYLKMQQHEQALADCRRALELDGQSVKAHFFLGQCQLEMESYDEAIANLQRAYSLAKEQRLNFGDDIPSALRIAKKKRWNSIEERRIHQESELHSYLSRLIAAERERELEECQRNHEGDEDDSHVRAQQACIEAKHDKYMADMDELFSQVDEKRKKRDIPDYLCGKISFELMREPCITPSGITYDRKDIEEHLQRVGHFDPVTRSPLTQEQLIPNLAMKEVIDAFISENGWVEDY
modifications: 35S-methionine labeled
notes: Made in rabbit reticulocyte lysate; not shown: S-tag and vector-encoded residues of pCITE-4a
For B4, the binding result in assay [4] is on record as “no binding”.

B5: Full-length hCHIP fused to the GAL4 DNA-binding domain (bait, plasmid pAS2-1) (other)
chain: MKLLSSIEQACDICRLKKLKCSKEKPKCAKCLKNNWECRYSPKTKRSPLTRAHLTEVESRLERLEQLFLLIFPREDLDMILKMDSLQDIKALLTGLFVQDNVNKDAVTDRLASVETDMPLTLRQHRISATSSSEESSNKGQRQLTVSMKGKEEKEGGARLGAGGGSPEKSPSAQELKEQGNRLFVGRKYPEAAACYGRVITRNPLVAVYYTNRALCYLKMQQHEQALADCRRALELDGQSVKAHFFLGQCQLEMESYDEAIANLQRAYSLAKEQRLNFGDDIPSALRIAKKKRWNSIEERRIHQESELHSYLSRLIAAERERELEECQRNHEGDEDDSHVRAQQACIEAKHDKYMADMDELFSQVDEKRKKRDIPDYLCGKISFELMREPCITPSGITYDRKDIEEHLQRVGHFDPVTRSPLTQEQLIPNLAMKEVIDAFISENGWVEDY
notes: Expressed in yeast strain CG-1945
In the case of B5, the binding result in assay [5] is given as “no binding”.

B6: GST-hCHIP fusion protein (amino acid residues 1-142) (other)
chain: MKGKEEKEGGARLGAGGGSPEKSPSAQELKEQGNRLFVGRKYPEAAACYGRVITRNPLVAVYYTNRALCYLKMQQHEQALADCRRALELDGQSVKAHFFLGQCQLEMESYDEAIANLQRAYSLAKEQRLNFGDDIPSALRIA
notes: Contains the three TPR domains; also called GST construct 2; not shown: glutathione S-transferase (GST) encoded by vector pGEX KG
For the molecule B6, the binding result with Bovine Hsc70 (Stressgen) and in the assay with Human Hsp70 (Stressgen) [6] was “no binding” in each case.

B7: GST-hCHIP fusion protein (amino acid residues 1-197) (other)
chain: MKGKEEKEGGARLGAGGGSPEKSPSAQELKEQGNRLFVGRKYPEAAACYGRVITRNPLVAVYYTNRALCYLKMQQHEQALADCRRALELDGQSVKAHFFLGQCQLEMESYDEAIANLQRAYSLAKEQRLNFGDDIPSALRIAKKKRWNSIEERRIHQESELHSYLSRLIAAERERELEECQRNHEGDEDDSHVRAQQ
notes: TPR domains plus the adjacent charged domain; also called GST construct 4; not shown: glutathione S-transferase (GST) encoded by vector pGEX KG
For B7, the binding result with Bovine Hsc70 (Stressgen) and with Human Hsp70 (Stressgen) [6] was “binds” each time.

Values taken from US7094873 (University of Texas, dated 2006).
